Results on 1 molecule are retold here after patent US20240124576A1.

Assay [1] addresses murine S-15 Biotin (Acrobiosystems, Cat. No. SG5-M52H7, biotinylated) (murine). Kind of assay: flow cytometry of yeast-displayed scFv clone, 30 nM Murine S-15 Biotin, Streptavidin-PE. On the technique in general: Flow cytometry measures light scatter and fluorescence of single cells or particles in a stream.
Assay [2] deals with T1, biotinylated human Siglec-15 protein (Acrobiosystems, Cat. No. SG5-H82E9) (human) (UniProt Q6ZMC9).
T1 sequence (biotinylated, looked up): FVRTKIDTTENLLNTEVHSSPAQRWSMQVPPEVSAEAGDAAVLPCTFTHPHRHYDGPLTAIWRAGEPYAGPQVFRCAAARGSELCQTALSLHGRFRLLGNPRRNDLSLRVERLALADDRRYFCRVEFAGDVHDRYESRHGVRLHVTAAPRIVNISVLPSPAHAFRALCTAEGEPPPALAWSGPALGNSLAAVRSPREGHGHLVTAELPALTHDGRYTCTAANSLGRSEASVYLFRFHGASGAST
Kind of assay: flow cytometry of yeast-displayed scFv clone, 30 nM Human S-15 Biotin, Streptavidin-PE.

Assay [3] has as its target Monkey S-15-Fc (Acrobiosystems, Cat. No. SG5-C5253) (monkey). Kind of assay: flow cytometry of yeast-displayed scFv clone, 10 nM Monkey S-15-Fc, M&H Fc-APC.
The target in the next assay is Irrelevant antigen. Kind of assay: flow cytometry of yeast-displayed scFv clone, 30 nM irrelevant antigen, Streptavidin-PE.

B1: Ab0 (clone Y14C4), single-chain antibody displayed on yeast (scFv, part only; not given: linker, domain order, tag, anchor, V domains shown, not shown: another chain or arm of the molecule; large carriers; small tags and cut ends)
VH: EVQLLESGGGLVQPGGSLRLSCAASGFTFSSYAMSWVRQAPGKGLEWVSTISGGGGSTYYADSVKGRFTISRDNSKNTLYLQMNSLRAEDTAVYYCAKAIGSSWYSDAFDLWGQGTMVTVSS
VL: DIQMTQSPSSVSASVGDRVTITCRASQDISSWLAWYQQKPGKAPKLLIYVASSLQSGVPSRFSGSGSGTDFTLTISSLQPEDFATYYCQQSYSIPYTFGQGTKLEIK
Molecule B1 returned a Murine S-15 binding signal in assay [1] of 286 MFI. Moreover, the Human S-15 binding signal in assay [2] amounted to 666 MFI. The same molecule registered a Monkey S-15 binding signal in assay [3] of 588 MFI. In the assay with Irrelevant antigen, this molecule displayed an Irrelevant antigen-binding signal of 12.5 MFI.
